Experimental data taken from patent US20180057581A1.
Numbering of substitutions follows the chain as printed.

B1: HeRX1-10G1, IgG1 (antibody, V domains shown)
VH: QVQLQESGPGLVKPSQTLSLTCTVSDYSITSDYAWNWIRQFPGKGLEWMGYISYSGSTSYNPSLKSRITISRDTSKNQFSLQLNSVTAADTAVYYCASFDYAHAMDYWGQGTTVTVSS
VL: DIVLTQSPAFLSVTPGEKVTFTCQASQSIGTSIHWYQQKTDQAPKLLIKYASESISGIPSRFSGSGSGTDFTLTISSVEAEDAADYYCQQINSWPTTFGGGTKLEIKRT
B2: HeRX1-10G1, IgG1_D265A (antibody, V domains shown)
VH: B1 VH
VL: B1 VL
B3: HeRX1-10G1 (format not stated) (antibody, V domains shown)
VH: B1 VH
VL: B1 VL
B4: Blanche, IgG1_D265A (antibody, V domains shown)
VH: QVQLQQSGPGLVKPSQTLSLTCAISGDSVSSNSAAWNWIRQSPSRGLEWLGRTYYRSKWKHEYAMSVKSRITINPDTSKNQFSLQLNSVTPEDTAVYYCARDRYYYSAFDYWGQGTLVTVSS
VL: DIALTQPASVSGSPGQSITISCTGTSSDVGGYNSVSWYQQHPGKAPKLMIYAVSNRPSGVSNRFSGSKSGNTASLTISGLQAEDEADYYCASYDERFTRVFGGGTKLTVLGQ
B5: Caline, IgG1_D265A (antibody, V domains shown)
VH: B4 VH
VL: B4 VL with D1Q, I2S
B6: Maelle, IgG1_D265A (antibody, V domains shown)
VH: B4 VH with D27E, S31T, N32S, H61K, M65Q
VL: B4 VL with D1Q, I2S, M49I
B7: Camille, IgG1_D265A (antibody, V domains shown)
VH: B4 VH with D27E, S31T, N32S, M65V
VL: B4 VL with D1Q, I2S, M49L
B8: Meriem, IgG1_D265A (antibody, V domains shown)
VH: B4 VH with S31T, N32S, H61K, M65Q
VL: B4 VL with D1Q, I2S, M49I
B9: Camille (format not stated) (antibody, V domains shown)
VH: B4 VH with D27E, S31T, N32S, M65V
VL: B4 VL with D1Q, I2S, M49L
B10: Laurine, IgG1_D265A (antibody, V domains shown)
VH: B4 VH with H61K, M65Q
VL: B4 VL
B11: Celine, IgG1_D265A (antibody, V domains shown)
VH: B4 VH with S31T, N32S, M65V
VL: B4 VL with D1Q, I2S, M49I
B12: Madeleine, IgG1_D265A (antibody, V domains shown)
VH: B4 VH with H61K, M65Q
VL: B4 VL with D1Q, I2S
B13: Romaine, IgG1_D265A (antibody, V domains shown)
VH: EVQLVESGGGLVKPGGSLRLSCAASGFTFSIYAMSWVRQAPGKGLEWVGRIKSNADGGTTEYAAPVKGRFTISRDDSKNTLYLQMNSLKTEDTAVYYCARMRYYSDLYFDPWGQGTLVTVSS
VL: DIELTQPPSVSVSPGQTASITCSGDAIGSKYVHWYQQKPGQAPVLVISKDNKRPSGIPERFSGSNSGNTATLTISGTQAEDEADYYCQTATVSSYWWVFGGGTKLTVLGQ
B14: Satine, IgG1_D265A (antibody, V domains shown)
VH: B13 VH
VL: SYELTQPPSVSVSPGQTASITCSGDKLGQKYVSWYQQKPGQSPVLVISQDRKRPSGIPERFSGSNSGNTATLTISGTQAEDEADYYCQTWTHLQWVFGGGTKLTVLGQ
B15: Servane, IgG1_D265A (antibody, V domains shown)
VH: B13 VH with I31T, M34I, R50F, N54K, A55H, D56N, G57S
VL: B14 VL
B16: HeRX1-10G1, IgG1 (antibody, V domains shown)
VH: B1 VH
VL: DIVLTQSPAFLSVTPGEKVTFTCQASQSIGTSIHWYQQKTDQAPKLLIKYASESISGIPSRFSGSGSGTDFTLTISSVEAEDAADYYCQQINSWPTTFGGGTKLEIKR
B17: HeRX1-10G1, IgG1_D265A (antibody, V domains shown)
VH: B1 VH
VL: B16 VL
B18: Blanche, IgG1_D265A (antibody, V domains shown)
VH: B4 VH
VL: DIALTQPASVSGSPGQSITISCTGTSSDVGGYNSVSWYQQHPGKAPKLMIYAVSNRPSGVSNRFSGSKSGNTASLTISGLQAEDEADYYCASYDERFTRVFGGGTKLTVLG
B19: Meriem, IgG1_D265A (antibody, V domains shown)
VH: B4 VH with S31T, N32S, H61K, M65Q
VL: B18 VL with D1Q, I2S, M49I
B20: Celine, IgG1_D265A (antibody, V domains shown)
VH: B4 VH with S31T, N32S, M65V
VL: B18 VL with D1Q, I2S, M49I
B21: Madeleine, IgG1_D265A (antibody, V domains shown)
VH: B4 VH with H61K, M65Q
VL: B18 VL with D1Q, I2S
B22: Caline, IgG1_D265A (antibody, V domains shown)
VH: B4 VH
VL: B18 VL with D1Q, I2S
B23: Laurine, IgG1_D265A (antibody, V domains shown)
VH: B4 VH with H61K, M65Q
VL: B18 VL
B24: Maelle, IgG1_D265A (antibody, V domains shown)
VH: B4 VH with D27E, S31T, N32S, H61K, M65Q
VL: B18 VL with D1Q, I2S, M49I
B25: Romaine, IgG1_D265A (antibody, V domains shown)
VH: B13 VH
VL: DIELTQPPSVSVSPGQTASITCSGDAIGSKYVHWYQQKPGQAPVLVISKDNKRPSGIPERFSGSNSGNTATLTISGTQAEDEADYYCQTATVSSYWWVFGGGTKLTVLG
B26: Satine, IgG1_D265A (antibody, V domains shown)
VH: B13 VH
VL: SYELTQPPSVSVSPGQTASITCSGDKLGQKYVSWYQQKPGQSPVLVISQDRKRPSGIPERFSGSNSGNTATLTISGTQAEDEADYYCQTWTHLQWVFGGGTKLTVLG

What follows are binders tested against native human M-CSF (in human serum or in MDA-MB-231 conditioned medium) (human), P09603 (assay: cell-based or functional assay).
Sequence of native human M-CSF (in human serum or in MDA-MB-231 conditioned medium) (human), P09603 (P09603 33-255): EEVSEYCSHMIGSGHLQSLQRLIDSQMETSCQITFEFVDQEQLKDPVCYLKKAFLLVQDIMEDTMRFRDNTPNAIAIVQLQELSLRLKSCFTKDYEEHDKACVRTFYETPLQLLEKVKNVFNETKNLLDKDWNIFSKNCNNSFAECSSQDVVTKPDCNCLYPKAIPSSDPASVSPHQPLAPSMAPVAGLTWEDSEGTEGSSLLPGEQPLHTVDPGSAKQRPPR

Binder | IC50, inhibition of M-NFS-60 proliferation induced by MDA-MB-231 conditioned medium [nM] | IC50, inhibition of M-NFS-60 proliferation induced by human serum (50%) [nM] | Cell viability assay (IC50), Human serum M-CSF [nM] | Cell viability assay (IC50), MDA-MB-231 [nM]
B1 | 0.0903 | 0.0154 |  | 
B2 | 0.0591 | 0.0124 |  | 
B3 |  |  | 0.015 | 0.09
B4 | 0.12 | 0.0183 |  | 
B5 | 0.107 | 0.0177 |  | 
B6 | 0.0989 | 0.016 |  | 
B7 | 0.0985 | 0.0177 |  | 
B8 | 0.0769 | 0.0151 |  | 
B9 |  |  | 0.018 | 0.099
B10 | 0.095 | 0.0156 |  | 
B11 | 0.0724 | 0.0238 |  | 
B12 | 0.0754 | 0.02 |  | 
B13 | 0.0833 | 0.0252 |  | 
B14 | 0.0708 | 0.0318 |  | 
B15 | 0.107 | 0.0932 |  | 

Each binder was assayed against M-CSF endogenously expressed on MDA-MB-231 cells (human) (UniProt P09603) (assay: FACS, MDA-MB-231 cells endogenously expressing M-CSF (n = 2)).

Binder | EC50 [nM]
B16 | 27
B17 | 23
B18 | 10
B19 | 10
B20 | 13
B21 | 10
B22 | 14
B23 | 9
B24 | 8
B25 | 19
B26 | 26
